Paper PMC11574021, “CEP192 localises mitotic Aurora-A activity by priming its interaction with TPX2” (The EMBO Journal, 2024)

What was measured:
[1] = target: FAM-CEP192 501–533 (human) (UniProt Q8TEP8); assay: fluorescence polarisation; direct fluorescence anisotropy: Aurora-A diluted across the plate, 50 nM tracer FAM-CEP192 501–533; 25 mM HEPES pH 7.5, 150 mM NaCl, 2 mM DTT, 5 mM MgCl2, 0.01% Tween 20; 1 h at room temperature
[2] = tested on: Aurora-A-pT288 in U251 cells; assay: Western blot densitometry of Aurora-A-pT288, mitotic U251 cells; assay type: cell-based, Homo sapiens; details: mitotic U251 (and RPE1) lysates, siRNA 48 h, in words
Description: For western blotting analysis of mitotic lysates, cells were synchronised in mitosis with 10 µM S-Trityl-L-cysteine (STLC, Bio-Techne, 2191-50), an Eg5 inhibitor, for 20 h prior to collecting by mitotic shake-off. For measuring monopolar spindle diameter and counting centriolar foci by immunofluorescence, cells were treated with 10 µM STLC for 1 h and 4 h prior to fixation, respectively.
As noted in the figures, the following drugs were incubated with cells for 30 min at 37 °C: Aurora-B-i ZM447439 2 µM [10 mM], PLK1-I BI2536 1 µM [10 mM] and Aurora-A-i MLN8237 [5 mM] was used at 250 and 500 nM in U251 and RPE1 cells, respectively. Drugs were resuspended in DMSO to the stock concentrations indicated in square brackets. BI2536 (HY-50698), MLN8237 (HY-10971) and ZM447439 (HY-10128) were all purchased from MedChemExpress. For western blotting, a 20-min pre-treatment with proteasome inhibitor (20 µM MG-132, MerckMillipore, 47490 [20 mM]) was required prior to the addition of DMSO control or kinase inhibitors. This prevented mitotic exit as a consequence of checkpoint override following Aurora-A and Aurora-B inhibitor addition.
Cells were lysed on ice for 30 min in lysis buffer (50 mM tris pH 8.0, 300 mM NaCl, 0.2%(v/v) NP-40, 10%(v/v) glycerol, protease inhibitor cocktail C, phosphatase inhibitor cocktail 3 (Sigma, 1:200 dilution), 100 nM okadaic acid (Enzo, ALX-350-003-C100)). Lysates were then centrifuged at 14,000 × g, 15 min, 4 °C, the supernatants were transferred to a fresh tube, and the pellet was discarded. Protein concentrations were measured by Bradford assay using Protein Assay Dye Reagent Concentrate (Bio-Rad Laboratories, 5000006). NuPage LDS sample buffer, supplemented with NuPAGE sample reducing agent (Invitrogen) were added prior to boiling for 10 min at 90 °C. […]
Densitometric quantification of western blots was also performed in ImageJ. Intensity was measured in a rectangular region of interest (ROI) around each band. […] An adjacent region was also measured to account for background intensity.

[3] = tested on: PPP1CA-pT320, PRC1-pT481 and Histone-H3-pS10 in U251 cells; assay: Western blot, mitotic phosphorylations (PPP1CA-pT320, PRC1-pT481, Histone-H3-pS10), asynchronous U251; assay type: cell-based, Homo sapiens; details: asynchronous U251, siRNA 48 h
Description: Cells were lysed on ice for 30 min in lysis buffer (50 mM tris pH 8.0, 300 mM NaCl, 0.2%(v/v) NP-40, 10%(v/v) glycerol, protease inhibitor cocktail C, phosphatase inhibitor cocktail 3 (Sigma, 1:200 dilution), 100 nM okadaic acid (Enzo, ALX-350-003-C100)). Lysates were then centrifuged at 14,000 × g, 15 min, 4 °C, the supernatants were transferred to a fresh tube, and the pellet was discarded. Protein concentrations were measured by Bradford assay using Protein Assay Dye Reagent Concentrate (Bio-Rad Laboratories, 5000006). NuPage LDS sample buffer, supplemented with NuPAGE sample reducing agent (Invitrogen) were added prior to boiling for 10 min at 90 °C. Equal amounts of protein, between 8–20 µg/lane, were loaded into pre-cast 4–12% Bis-Tris gels (Invitrogen, NP0322BOX) and proteins separated in 1x MOPS buffer (Invitrogen) and transferred to nitrocellulose membrane (0.45 µM). Nitrocellulose was then blocked in 5% milk (wt/v) in TBS, 0.1% Tween (v/v) (TBST) for 1 h. Primary and secondary antibodies were diluted in 5% milk, TBST and incubated overnight at 4 °C or for 1 h at room temperature, respectively. Species-specific secondary antibodies conjugated to horseradish peroxidase (HRP) were used (anti-Mouse, Cytiva NA931V; anti-Rabbit, Cytiva NA934; anti-Sheep, Jackson 713-035-003). Membranes were washed for 1 h in TBST, changing the buffer five times, after each antibody incubation.
siRNA depletion was carried out by reverse transfection using oligofectamine (Thermo Scientific, 12252011) and lipofectamine RNAiMax (Thermo Scientific, 13778075), according to the manufacturer’s instructions, for U251 and RPE1 cells, respectively. For immunofluorescence, 1 × 10^5 cells were seeded in six-well plates and simultaneously transfected with 60 pmol siRNA duplex and 3 µl transfection reagent diluted in 200 µl Opti-MEM serum-free medium. Growth medium was added to a final volume of 2 ml. For western blotting, 1 × 10^6 cells were seeded in 10 cm dishes and transfected with 300 pmol siRNA duplex and 15 µl transfection reagent diluted in 1000 µl Opti-MEM. […]

human CEP192 468–533 = target: T1, human CEP192 468–533 (human, UniProt Q8TEP8 468-533); assay: ITC; 250 μM Aurora-A in the syringe, 25 μM CEP192 construct in the cell; 25 °C; 20 mM tris pH 7.5, 200 mM NaCl, 10% glycerol, 5 mM MgCl2
T1 construct: also called CEP192_(506-527_F); source: E. coli B834 RIL, purified (HisTrap, TEV cleavage, SEC); for crystallisation co-expressed with Aurora-A^M7KD and co-purified; not shown: His6, N-terminal, cleaved; SUMO, N-terminal, cleaved
T1 sequence (looked up): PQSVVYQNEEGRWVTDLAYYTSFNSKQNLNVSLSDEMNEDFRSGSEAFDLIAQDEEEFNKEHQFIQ

Aurora-A = details: cited from earlier work
Description: page 22: have elected to test PLK1 localization. In the absence of a direct test, they could nevertheless refer to the observations of Joukov et al. We find that PLK1 localisation is normal in ∆11 cells and have include d this new data (Fig. EV8) -Figure 5A-B: The scheme could be made clearer. Why is CEP192 depicted in blue and grey in panel A, green and grey in panel B (grey in scheme of excision sites). Why not use color consistently? […] We have ch ...

[4] = target: T2, Aurora-A^CAKD (Aurora-A kinase domain, aa 122–403 C290A, C393A), unphosphorylated (human, UniProt O14965 122-403, C290A | C393A); assay: fluorescence polarisation; competition: 10 μM unphosphorylated Aurora-A^CAKD preincubated with 100 nM FAM-TPX2 7-43, CEP192 competitor serially diluted; 25 mM HEPES pH 7.5, 150 mM NaCl, 2 mM DTT, 5 mM MgCl2, 0.01% Tween 20; details: both partners purified
T2 construct: Aurora-A kinase domain, human, residues 122-403, variant lacking surface cysteines; also called Aurora-A 122–403 C290A C393A; unphosphorylated Aurora-A^CAKD; source: E. coli RIL, co-expressed with lambda phosphatase, purified (HisTrap, TEV cleavage, SEC); not shown: His6, N-terminal, cleaved
T2 sequence (looked up): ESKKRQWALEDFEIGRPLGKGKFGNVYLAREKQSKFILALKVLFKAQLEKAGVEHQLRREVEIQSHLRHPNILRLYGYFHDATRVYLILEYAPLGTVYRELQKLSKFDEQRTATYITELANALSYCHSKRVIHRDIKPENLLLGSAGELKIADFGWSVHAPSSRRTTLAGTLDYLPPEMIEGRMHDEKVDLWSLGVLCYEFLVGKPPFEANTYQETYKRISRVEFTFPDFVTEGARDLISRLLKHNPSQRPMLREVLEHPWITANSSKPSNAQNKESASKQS

[5] = target: T3, phosphorylated Aurora-A^CAKD (Aurora-A 122–403 C290A C393A, not co-expressed with lambda phosphatase) (human, UniProt O14965 122-403, C290A | C393A, phosphorylated (sites of this preparation not printed in the text shown)); assay: cell-based or functional assay
T3 sequence (looked up): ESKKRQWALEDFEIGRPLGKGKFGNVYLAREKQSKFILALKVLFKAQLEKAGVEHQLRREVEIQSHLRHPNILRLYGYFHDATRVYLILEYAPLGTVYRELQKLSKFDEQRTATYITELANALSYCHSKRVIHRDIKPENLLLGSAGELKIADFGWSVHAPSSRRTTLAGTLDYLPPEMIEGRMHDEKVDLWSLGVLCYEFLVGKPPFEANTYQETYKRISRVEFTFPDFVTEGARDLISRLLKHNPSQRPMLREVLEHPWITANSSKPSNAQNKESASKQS

Aurora-A^KD F165D (Aurora-A 122–403 F165D) (from UniProt O14965 122-403) (domain or fragment)
Kd [1]: > 5 µM

5′-GGAUAUGGUUGAUCCUAUAtt-3′ [siBora]
activation loop phosphorylation (pT288) of Aurora-A in mitotic cell lysates [2]: no discernible effect
mitotic phosphorylations (PPP1CA-pT320, PRC1-pT481, Histone-H3-pS10) [3]: increased levels of mitotic phosphorylations

Aurora-A^KD F165D/R205A (Aurora-A 122–403 R205A F165D) (from UniProt O14965 122-403) (domain or fragment)
Kd (human CEP192 468–533): 26 µM
stoichiometry N (human CEP192 468–533): 0.87

Aurora-A^KD R205A (Aurora-A 122–403 R205A) (from UniProt O14965 122-403) (domain or fragment)
Kd [1]: > 5 µM

Aurora-A^KD R151A (Aurora-A 122–403 R151A) (from UniProt O14965 122-403) (domain or fragment)
Kd [1]: > 10 µM

B1: CEP192 521-757: recombinant GST-tagged CEP192 521-757 with the Xenopus CEP192 binding site (Joukov et al 2010) (protein, UniProt Q8TEP8 521-757, looked up, fragment)
chain: DEEEFNKEHQFIQEENIDAHNTSVALGDTSWGATINYSLLRKSRSTSDLDKDDASYLRLSLGEFFAQRSEALGCLGGGNNVKRPSFGYFIRSPEKREPIALIRKSDVSRGNLEKEMAHLNHDLYSGDLNEQSQAQLSEGSITLQVEAVESTSQVDENDVTLTADKGKTEDTFFMSNKPQRYKDKLPDSGDSMLRISTIASAIAEASVNTDPSQLAAMIKALSNKTRDKTFQEDEKQK
modifications: GST tag
effect on Maskin/TACC3 phosphorylation by Aurora-A (Aurora-A; Xenopus egg extract, ref Joukov et al. (2010) Figure 4C): lower levels of Maskin/TACC3 phosphorylation
effect on Aurora-A autophosphorylation at Thr288 and Histone H3 phosphorylation (Aurora-A; recombinant GST-tagged CEP192, western blot, ref Joukov et al. (2010) Figure 3G): prevents autophosphorylation of Aurora-A at Thr288

B2: human CEP192 468–533 L484D (domain or fragment, UniProt Q8TEP8 468-533, looked up)
chain: PQSVVYQNEEGRWVTDDAYYTSFNSKQNLNVSLSDEMNEDFRSGSEAFDLIAQDEEEFNKEHQFIQ
notes: source: E. coli B834 RIL, purified (HisTrap, TEV cleavage, SEC); not shown: His6, N-terminal, cleaved; SUMO, N-terminal, cleaved
IC50 [4]: 19.9 µM
ADP-Glo, 10 nM phosphorylated Aurora-A^CAKD with kemptide: IC50 of inhibition of kinase activity [5]: 220 nM
